For this data set, the system named is ATP. The data set can be described thus: switch fluorescence ratio, 500 uM ATP over buffer (Cy3 cluster intensity, sum of 5 cycles each) (fold (ratio)); higher = stronger signal-on switching upon ATP binding; sequences stand for … in TCGTCGGCAGCGTCAGATGTGTATAAGAGACAGTTTTTTTTTTTTTTTTTTTTTTTTT…TC. As to conditions: aptamer strand: ATP DNA aptamer (quencher-CACCTGGGGGAGTATTGCGGAGGAAGG + anchor), 100 nM annealed; ATP concentration: 500 uM. Summed up:
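Switching-strand clusters labelled with Cy3 on a modified Illumina MiSeq flow-cell were annealed to 100 nM quencher-labelled ATP aptamer, imaged in selection buffer, and re-imaged after 15 min with 500 uM ATP at 22 °C. This was done over five cycles with NaOH stripping and re-annealing in between. The fluorescence ratio is summed target-cycle over summed buffer-cycle Cy3 intensity per cluster, averaged per switch-domain sequence, excluding clusters outside 100-1000 RFU.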

± gives the standard deviation of the averaged measurements.
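Also: ATP exposure 15 min at 22 °C before imaging.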

With GGAGAGGGTC, the switch fluorescence ratio came out at 1.049 ± 0.0064. The figure for CGGCGAACTC is 1.11 ± 0.033; for TTCGGGGAT it is 0.982 ± 0.032. The figure for CTGTTTCACA is 0.949 ± 0.046; for CGGGTGGGAG it is 0.991 ± 0.038; for TCTAAGGGGA it is 1.06 ± 0.11. Regarding TGGGCGGGAT, the switch fluorescence ratio was 1 ± 0.039. On to CGTGTGGGGG, for which the switch fluorescence ratio was found to be 1.02 ± 0.031.

Consider TGGATGGGTA, for which the switch fluorescence ratio is 1.22 ± 0.33. The figure for AGAACCATCG is 1.05 ± 0.016; for GTATGATGTG it is 0.9915 ± 0.008; for ATATGTTAGT it is 0.988 ± 0.011.

As for GGGGTCAGCC, the switch fluorescence ratio came to 1.06 ± 0.13. Turning to AGAGGGGATG, the switch fluorescence ratio was 1.02 ± 0.0081. The figure for TTGACAGGTT is 1.15 ± 0.19; for GTTTGCGGGC it is 0.947 ± 0.0066. The figure for GCAAAAGGTT is 1.01 ± 0.022; for TTCATATTG it is 0.9923 ± 0.0019; for TTGGGGGAGC it is 0.976 ± 0.018. The figure for TTGACGTGTT is 1.03 ± 0.047; for CGCGAAAGCC it is 1.002 ± 0.01; for TTTGGATCCT it is 1.02 ± 0.019.

Turning to TTTGGCTGAG, the switch fluorescence ratio turned out to be 1.004 ± 0.009. As for GGGTGCCAGT, the switch fluorescence ratio was determined as 0.963 ± 0.011. For the sequence GGGGGGTTAA, the switch fluorescence ratio amounted to 1.02 ± 0.028. Regarding TACAGGTTGT, the switch fluorescence ratio stood at 1.21 ± 0.19.

As for TGACGTTATC, the switch fluorescence ratio amounted to 1.18 ± 0.025. The figure for AAAGCTGGGG is 0.981 ± 0.048. Regarding ACTATGTGGT, the switch fluorescence ratio amounted to 0.9971 ± 0.0096. The figure for TTTTATGGTG is 0.994 ± 0.019. The figure for TTGCTCACTT is 1.04 ± 0.029; for TAAGAGGGGG it is 0.996 ± 0.052. The figure for CCTGGCTGAT is 1.11 ± 0.058. For the sequence AGGACAAATC, the switch fluorescence ratio was determined as 0.985 ± 0.026. With TAAGGAGGGG, the switch fluorescence ratio came to 0.981 ± 0.024. The figure for ATCTGGGGCC is 1.01 ± 0.012; for ATTTTTGTGG it is 0.974 ± 0.011; for TTTAAAGCCC it is 1.01 ± 0.043.

As for CCAGTTTGGT, the switch fluorescence ratio was found to be 0.9871 ± 0.0073.

As for GAAAAAGGTC, the switch fluorescence ratio was determined as 1.031 ± 0.008.

On to GCTGTAAAGC, for which the switch fluorescence ratio worked out at 1.03 ± 0.092. With TAGGTTGTCT, the switch fluorescence ratio is 1.03 ± 0.036. For the sequence ATTGTTTTGG, the switch fluorescence ratio is 0.981 ± 0.028. The figure for TAAGCGGGTA is 1.02 ± 0.016; for AATTGGGTGC it is 1.09 ± 0.12. The figure for TGGGTAGTGC is 0.997 ± 0.029; for AGGGGGTTGG it is 1 ± 0.032; for CTTTACGGGC it is 1.02 ± 0.038. The figure for AAACCATCCG is 1.63 ± 0.064; for ATATACTAAT it is 1.02 ± 0.038; for TTAATTTTTC it is 1.02 ± 0.03. Take CACATTAACT: the switch fluorescence ratio came to 1.094 ± 0.0047. The figure for TCAAAGGGGG is 0.951 ± 0.023; for GTATGAGGCG it is 0.981 ± 0.04; for TATGTGGGTA it is 0.983 ± 0.026.

As for AGTTCGTAGA, the switch fluorescence ratio amounted to 0.966 ± 0.048. The figure for TCAGGGATTG is 0.977 ± 0.017. With GGGGGACGCT, the switch fluorescence ratio was found to be 0.972 ± 0.039. Consider TGCAGTGTGG, for which the switch fluorescence ratio was found to be 1.005 ± 0.0078. The figure for TTACTGGACG is 1.07 ± 0.058; for GCGTCAATTG it is 1.02 ± 0.035; for AGAAGGGACG it is 0.973 ± 0.021. The figure for GCTATAGTAT is 0.998 ± 0.0056; for TATTGAACGA it is 1 ± 0.011; for ATTGGTCATA it is 1 ± 0.028. The figure for CTTGAAGGGG is 0.999 ± 0.036. Consider TTTATCTATT, for which the switch fluorescence ratio was 1 ± 0.012.

For TGGGCTTTGG, the switch fluorescence ratio was 0.9992 ± 0.009. The figure for TAAATACGGG is 1.03 ± 0.016; for ATTTGAGGGA it is 1.13 ± 0.2. The figure for TAAGGCGGGC is 0.988 ± 0.032. As to TGTTGTATAA, the switch fluorescence ratio worked out at 1.2 ± 0.26.

Take AATGTGCAGT: the switch fluorescence ratio stood at 0.9627 ± 0.0043. The figure for TTGGTTTTAG is 1 ± 0.033; for CTTAGGACGC it is 1.22 ± 0.0055.

For TTTTATTGTT, the switch fluorescence ratio came out at 1.01 ± 0.034. Consider GCTATCGAGT, for which the switch fluorescence ratio is 1.01 ± 0.018. For GGGTATGTGA, the switch fluorescence ratio is 0.961 ± 0.037. The figure for AGGCTAAAGG is 1 ± 0.026; for AGTTTTGGCG it is 0.973 ± 0.0047. The figure for CTGATGTGTA is 0.965 ± 0.059; for ACGATGTATC it is 1.06 ± 0.049. The figure for ATACTCCGGA is 1.16 ± 0.055; for TTAGTCTGTT it is 0.99 ± 0.022. In the case of AATATATACT, the switch fluorescence ratio is 1.04 ± 0.027. The figure for TAAAAGTTAT is 1.01 ± 0.02; for CGGGGATATG it is 0.9607 ± 0.0029. The figure for TCATACATTT is 0.9801 ± 0.0049; for ATGATGCGGG it is 1.01 ± 0.044. The figure for GTTGCGTGCT is 0.969 ± 0.032. TTGCTGATTT: the switch fluorescence ratio came out at 0.992 ± 0.059. With TAAGAAGATG, the switch fluorescence ratio came to 0.9808 ± 0.0014. As to CGATGAAAGG, the switch fluorescence ratio was determined as 0.966 ± 0.023. The figure for TCCAGGGGGA is 1.1 ± 0.051; for AAAATACAGA it is 1.08 ± 0.17; for ATAAGAAGTG it is 1.05 ± 0.072.

Regarding GGCTAAAACT, the switch fluorescence ratio was 1.01 ± 0.015.

Regarding TTTGCATGCC, the switch fluorescence ratio is 1.05 ± 0.085.

Consider AAAAGGAACT, for which the switch fluorescence ratio came out at 1.04 ± 0.044. Turning to GTGACCTGGG, the switch fluorescence ratio is 1.03 ± 0.026. The figure for TGATGGGGAT is 1.03 ± 0.017. The figure for TTGGACGTGT is 0.946 ± 0.027; for AGGCTATGTA it is 0.9998 ± 0.0042; for GACTTAGAAT it is 1 ± 0.0026.

As for TTTCCGTGAG, the switch fluorescence ratio stood at 1.63 ± 0.98.

For the sequence TTAAGAGTCT, the switch fluorescence ratio stood at 1.02 ± 0.049. The figure for TTGGGAAGGA is 1.02 ± 0.042. The figure for TCTTATAATA is 0.988 ± 0.032; for GCACACGGGG it is 1.01 ± 0.07; for AAGGCCTTCT it is 0.994 ± 0.011. The figure for GCGATTTCGG is 0.985 ± 0.023; for TTATTCGGGA it is 1.02 ± 0.031. As to AGAGTTTTTT, the switch fluorescence ratio turned out to be 0.998 ± 0.018. With AACTACGTCT, the switch fluorescence ratio is 0.986 ± 0.055. The figure for CTAGGTTTGG is 1.02 ± 0.033; for GCTTGTTTGA it is 1.01 ± 0.014. Consider AAATATTGGG, for which the switch fluorescence ratio worked out at 0.98 ± 0.068.

For the sequence TTTGACCGTT, the switch fluorescence ratio was determined as 0.988 ± 0.035. The figure for ACGCTAATGT is 1.35 ± 0.23; for TAGGTTTGGC it is 1.03 ± 0.024.

These data come from the supplement of paper PMC10126150.
